Source: article PMC2743556

Biological target: D-galactose receptor (human (endogenous in SHIN3))
Test: flow cytometry on cells

mean value of fluorescence (FACS flow cytometry): 10.9
Substance: TAMRA conjugated avidin (from UniProt P02701 25-152) (ligand)
